The record followed here is paper PMC545490, “Mapping and mutation of the conserved DNA polymerase interaction motif (DPIM) located in the C-terminal domain of fission yeast DNA polymerase δ subunit Cdc27” (BMC Molecular Biology, 2004).

The target in this assay is T1, LexA-Pol1-278-527 (S. pombe, UniProt P28040 278-527).
T1 construct: Pol1, catalytic subunit of DNA polymerase α, S. pombe, amino acids 278–527; source: yeast two-hybrid fusion (pBTM116, S. cerevisiae CTY10-5d)
T1 sequence (looked up): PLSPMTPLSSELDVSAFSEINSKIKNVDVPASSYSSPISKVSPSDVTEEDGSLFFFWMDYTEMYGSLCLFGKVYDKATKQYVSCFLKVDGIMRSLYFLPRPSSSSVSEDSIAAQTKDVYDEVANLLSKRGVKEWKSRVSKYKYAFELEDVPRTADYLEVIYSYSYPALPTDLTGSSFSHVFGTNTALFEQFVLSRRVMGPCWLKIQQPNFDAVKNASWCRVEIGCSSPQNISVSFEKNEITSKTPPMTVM
The assay can be described thus: two-hybrid; Gal4 AD prey (pACT2) and LexA bait (pBTM116) in S. cerevisiae lexA op-lacZ strain CTY10-5d; β-galactosidase activity in Miller units. The settings on record: partners not purified.

B1: Gal4-Cdc27-273-352-P7 (domain or fragment, S. pombe, UniProt P30261 273-352, looked up)
chain: TEAKSAAPDEPQEIIKSVSGGKRRGKRKVKKYATTKDEEGFLVTKEEEVWESFSAAANISTGTSNVVRNKPTTVNIATKK
notes: positions worked out from oligonucleotides CDC27-P6F and CDC27-P7F and the printed DEE 309–311; also called Cdc27-P7; source: yeast two-hybrid fusion (pACT2, S. cerevisiae CTY10-5d)
Turning to B1, the “strength of the interaction, percent of the wild-type value” is ~10 % of wild-type.
